For the assay, the target named is Flag-DHX9 recombinant protein (UniProt Q08211 1-1270). Nature of the assay: pull-down.
Chain of Flag-DHX9 recombinant protein (Q08211 whole entry): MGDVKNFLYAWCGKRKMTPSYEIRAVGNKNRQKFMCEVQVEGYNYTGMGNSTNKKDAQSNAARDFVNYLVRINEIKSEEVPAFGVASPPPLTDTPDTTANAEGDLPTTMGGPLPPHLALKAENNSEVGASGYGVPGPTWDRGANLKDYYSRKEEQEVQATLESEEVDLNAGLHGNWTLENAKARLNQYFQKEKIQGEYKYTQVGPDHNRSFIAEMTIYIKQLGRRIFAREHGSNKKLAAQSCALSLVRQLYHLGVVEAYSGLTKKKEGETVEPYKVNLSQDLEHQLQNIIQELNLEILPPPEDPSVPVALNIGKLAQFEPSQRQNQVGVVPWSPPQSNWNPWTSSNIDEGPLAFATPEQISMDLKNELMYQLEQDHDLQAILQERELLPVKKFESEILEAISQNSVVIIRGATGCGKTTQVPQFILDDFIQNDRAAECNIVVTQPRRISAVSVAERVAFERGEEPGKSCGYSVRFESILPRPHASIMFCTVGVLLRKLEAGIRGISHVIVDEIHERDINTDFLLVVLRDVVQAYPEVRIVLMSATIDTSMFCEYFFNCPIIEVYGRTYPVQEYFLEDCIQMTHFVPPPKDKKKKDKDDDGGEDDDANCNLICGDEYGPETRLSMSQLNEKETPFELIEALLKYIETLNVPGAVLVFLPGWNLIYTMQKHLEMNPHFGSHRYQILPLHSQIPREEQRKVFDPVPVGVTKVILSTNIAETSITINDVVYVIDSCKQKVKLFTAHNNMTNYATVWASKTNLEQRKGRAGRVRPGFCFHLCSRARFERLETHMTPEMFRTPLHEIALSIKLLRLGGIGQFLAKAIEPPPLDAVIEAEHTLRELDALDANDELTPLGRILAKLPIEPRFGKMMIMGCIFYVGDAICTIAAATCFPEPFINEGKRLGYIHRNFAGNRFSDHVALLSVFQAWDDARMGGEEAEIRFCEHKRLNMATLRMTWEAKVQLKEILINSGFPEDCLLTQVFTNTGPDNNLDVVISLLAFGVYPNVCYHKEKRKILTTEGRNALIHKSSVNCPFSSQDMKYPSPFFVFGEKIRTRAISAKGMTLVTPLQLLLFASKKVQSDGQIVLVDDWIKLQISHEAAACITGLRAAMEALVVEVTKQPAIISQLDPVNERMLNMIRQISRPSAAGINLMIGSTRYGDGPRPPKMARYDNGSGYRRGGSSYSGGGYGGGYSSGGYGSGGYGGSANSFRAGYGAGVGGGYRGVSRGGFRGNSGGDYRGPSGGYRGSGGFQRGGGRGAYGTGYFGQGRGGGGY

B1: GST-TDRD3 (natural protein)
chain: MAQVAGAALSQAGWYLSDEGIEACTSSPDKVNVNDIILIALNTDLRTIGKKFLPSDINSGKVEKLEGPCVLQIQKIRNVAAPKDNEESQAAPRMLRLQMTDGHISCTAVEFSYMSKISLNTPPGTKVKLSGIVDIKNGFLLLNDSNTTVLGGEVEHLIEKWELQRSLSKHNRSNIGTEGGPPPFVPFGQKCVSHVQVDSRELDRRKTLQVTMPVKPTNDNDEFEKQRTAAIAEVAKSKETKTFGGGGGGARSNLNMNAAGNRNREVLQKEKSTKSEGKHEGVYRELVDEKALKHITEMGFSKEASRQALMDNGNNLEAALNVLLTSNKQKPVMGPPLRGRGKGRGRIRSEDEEDLGNARPSAPSTLFDFLESKMGTLNVEEPKSQPQQLHQGQYRSSNTEQNGVKDNNHLRHPPRNDTRQPRNEKPPRFQRDSQNSKSVLEGSGLPRNRGSERPSTSSVSEVWAEDRIKCDRPYSRYDRTKDTSYPLGSQHSDGAFKKRDNSMQSRSGKGPSFAEAKENPLPQGSVDYNNQKRGKRESQTSIPDYFYDRKSQTINNEAFSGIKIEKHFNVNTDYQNPVRSNSFIGVPNGEVEMPLKGRRIGPIKPAGPVTAVPCDDKIFYNSGPKRRSGPIKPEKILESSIPMEYAKMWKPGDECFALYWEDNKFYRAEVEALHSSGMTAVVKFIDYGNYEEVLLSNIKPIQTEAWEEEGTYDQTLEFRRGGDGQPRRSTRPTQQFYQPPRARN
Turning to B1, the binding result is “binds”.
